Test results taken from publication PMC10213792 (Acta Pharmaceutica Sinica. B, 2023).
The star is where a group is joined. FITC = O=C1OC2(c3ccc(O)cc3Oc3cc(O)ccc32)c2ccc(NC(=S)*)cc21

T1: His-tagged FtsZ (M. tuberculosis H37Rv, UniProt P9WN95 1-379)
T1 sequence: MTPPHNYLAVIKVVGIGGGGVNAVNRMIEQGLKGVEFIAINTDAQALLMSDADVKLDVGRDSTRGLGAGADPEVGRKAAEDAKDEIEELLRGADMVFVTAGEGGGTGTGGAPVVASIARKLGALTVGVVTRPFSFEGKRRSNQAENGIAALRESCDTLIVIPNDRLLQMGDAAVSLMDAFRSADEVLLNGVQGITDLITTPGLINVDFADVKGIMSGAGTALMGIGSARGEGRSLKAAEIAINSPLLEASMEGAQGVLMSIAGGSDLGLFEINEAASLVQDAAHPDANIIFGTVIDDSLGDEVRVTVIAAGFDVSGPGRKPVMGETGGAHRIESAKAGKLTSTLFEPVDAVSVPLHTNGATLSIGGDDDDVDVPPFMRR

B1: His-tagged SepFc (N-terminal truncated version of SepF, amino acids 115-203) (domain or fragment)
chain: EMTRPRFGSWLRNSTRGALAMDPRRMAMMFEDGHPLSKITTLRPKDYSEARTIGERFRDGSPVIMDLVSMDNADAKRLVDFAAGLAFAL

What was measured:
SepF = SepF (Mycobacterium tuberculosis, UniProt P9WGJ5); assay: SPR; type: binding
Sequence of SepF (P9WGJ5 115-203): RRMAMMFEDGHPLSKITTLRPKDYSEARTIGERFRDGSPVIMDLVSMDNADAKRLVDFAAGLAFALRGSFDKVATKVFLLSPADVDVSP

[1] = target: B1; assay: fluorescence polarisation
His-tagged FtsZ = target: T1, His-tagged FtsZ; assay: SPR

With OC(COc1ccc2ccccc2c1)CN1CCCN(CC(O)COc2ccc3ccccc3c2)CC1 (stereo not drawn) [T0349, 1-{4-[2-hydroxy-3-(naphthalen-2-yloxy)propyl]-1,4-diazepan-1-yl}-3-(naphthalen-2-yloxy) propan-2-ol] the Kd (SepF) was 46.8 µM.

With {FITC}-SIGGDDDDVDVPPFMRR-OH [FITC-FtsZ (FITC-SIGGDDDDVDVPPFMRR-OH, 363-379 amino acids of the full-length FtsZ)] the Kd [1] was 0.0186 µM.

Molecule B1 has a Kd (His-tagged FtsZ) of 5.16 µM.
